The assay has as its target H5VN04 recombinant trimeric hemagglutinin (HA) (influenza A virus H5VN04 (H5N1)).

Bounds are passed on as bounds.

For CR6261 F54A scFv, the fold reduction of binding against CR6261 was determined as 800 fold. As for CR6261 Y98A scFv, the fold reduction of binding against CR6261 was greater than 4000 fold.

Consider F10 Y98A scFv, for which the fold reduction of binding against F10 was greater than 3000 fold.

The values above are taken from patent US20220135655A1.
